According to publication PMC3823998, “Structural and Functional Characterization of the Redβ Recombinase from Bacteriophage λ” (PLoS ONE, 2013):

Assays:
Test in all cases: EMSA; glutaraldehyde-fixed; ssDNA EMSA: 10 nM DNA, 50 mM potassium phosphate pH 6.0, 5 mM EDTA, 5% glycerol, 0.1 mg/ml BSA, 37°C, 40 min, then 0.1% glutaraldehyde; second-strand EMSA: 5 nM each strand, 20 mM Tris-HCl pH 7.5, 5 mM MgCl2, 1 mM DTT, 0.1 mg/ml BSA, 37°C
Conditions in all cases: protein: recombinant; tags: His6 removed; N-terminal GSH left; label: 5' Cy3
Redβ Y64A = molecular target: T1, Redβ Y64A (Bacteriophage λ (Enterobacteria phage λ), UniProt P03698 1-261, Y64A)
T1 sequence: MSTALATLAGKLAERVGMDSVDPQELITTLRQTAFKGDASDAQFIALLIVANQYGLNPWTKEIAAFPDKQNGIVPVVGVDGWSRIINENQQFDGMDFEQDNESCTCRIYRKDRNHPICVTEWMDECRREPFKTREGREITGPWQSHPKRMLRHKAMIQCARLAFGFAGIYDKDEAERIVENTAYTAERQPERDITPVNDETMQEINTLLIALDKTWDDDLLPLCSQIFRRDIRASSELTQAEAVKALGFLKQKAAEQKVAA

Redβ K148A = molecular target: T2, Redβ K148A (Bacteriophage λ (Enterobacteria phage λ), UniProt P03698 1-261, K148A)
T2 sequence: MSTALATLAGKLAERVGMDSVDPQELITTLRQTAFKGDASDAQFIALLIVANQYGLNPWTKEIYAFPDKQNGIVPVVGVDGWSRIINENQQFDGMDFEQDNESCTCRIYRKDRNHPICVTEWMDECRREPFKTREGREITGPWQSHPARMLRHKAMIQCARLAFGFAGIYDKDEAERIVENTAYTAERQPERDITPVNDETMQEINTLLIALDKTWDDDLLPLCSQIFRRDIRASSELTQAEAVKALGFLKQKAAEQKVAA

Redβ K132A = molecular target: T3, Redβ K132A (Bacteriophage λ (Enterobacteria phage λ), UniProt P03698 1-261, K132A)
T3 sequence: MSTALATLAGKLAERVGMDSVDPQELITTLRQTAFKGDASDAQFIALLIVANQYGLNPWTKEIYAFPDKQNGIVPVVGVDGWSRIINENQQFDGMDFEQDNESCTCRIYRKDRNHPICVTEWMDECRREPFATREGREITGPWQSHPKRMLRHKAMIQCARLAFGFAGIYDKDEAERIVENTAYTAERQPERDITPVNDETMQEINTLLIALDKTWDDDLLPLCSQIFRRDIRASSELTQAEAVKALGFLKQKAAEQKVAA

Redβ G78A = molecular target: T4, Redβ G78A (Bacteriophage λ (Enterobacteria phage λ), UniProt P03698 1-261, G78A)
T4 sequence: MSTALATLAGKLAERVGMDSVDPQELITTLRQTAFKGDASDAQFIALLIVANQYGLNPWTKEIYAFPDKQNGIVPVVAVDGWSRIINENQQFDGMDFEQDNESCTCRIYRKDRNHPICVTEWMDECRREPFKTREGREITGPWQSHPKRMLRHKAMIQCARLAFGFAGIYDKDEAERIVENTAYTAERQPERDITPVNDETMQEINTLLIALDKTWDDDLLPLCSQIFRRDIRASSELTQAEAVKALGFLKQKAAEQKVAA

Redβ K69A = molecular target: T5, Redβ K69A (Bacteriophage λ (Enterobacteria phage λ), UniProt P03698 1-261, K69A)
T5 sequence: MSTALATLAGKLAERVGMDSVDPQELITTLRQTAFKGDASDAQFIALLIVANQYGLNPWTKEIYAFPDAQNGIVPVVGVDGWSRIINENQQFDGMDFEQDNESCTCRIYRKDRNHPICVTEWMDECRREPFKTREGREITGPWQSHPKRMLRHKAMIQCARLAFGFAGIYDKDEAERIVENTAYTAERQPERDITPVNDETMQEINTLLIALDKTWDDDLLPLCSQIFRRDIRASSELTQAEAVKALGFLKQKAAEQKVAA

Redβ V77A = molecular target: T6, Redβ V77A (Bacteriophage λ (Enterobacteria phage λ), UniProt P03698 1-261, V77A)
T6 sequence: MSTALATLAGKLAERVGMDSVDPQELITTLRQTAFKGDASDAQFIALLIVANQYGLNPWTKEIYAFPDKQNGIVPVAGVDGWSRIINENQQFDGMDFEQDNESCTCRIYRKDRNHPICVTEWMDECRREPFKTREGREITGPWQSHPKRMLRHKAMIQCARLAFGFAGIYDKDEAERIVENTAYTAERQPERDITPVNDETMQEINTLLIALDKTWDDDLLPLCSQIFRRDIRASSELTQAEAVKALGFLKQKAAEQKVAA

B1: 50-minus ssDNA (ssDNA)
DNA: TGCGGATGGCTTAGAGCTTAATTGCTGAATCTGGTGCTGTAGCTCAACAT
binding signal (Redβ Y64A): 98 % of WT binding at 3 µM protein
binding signal (Redβ K148A): 43 % of WT binding at 3 µM protein
binding signal (Redβ K132A): 82 % of WT binding at 3 µM protein
binding signal (Redβ G78A): 33 % of WT binding at 3 µM protein
binding signal (Redβ K69A): 94 % of WT binding at 3 µM protein
binding signal (Redβ V77A): 11 % of WT binding at 3 µM protein
